Data: PMC4908583
pKd: −log10 of the molar value.

What follows are substances tested against FPRL1 (formyl peptide receptor-like 1) inhibitory protein (FLIPr) (S. aureus) (UniProt Q2FZC0) (assay: BLI).
FPRL1 (formyl peptide receptor-like 1) inhibitory protein (FLIPr) (S. aureus), sequence (Q2FZC0 25-133): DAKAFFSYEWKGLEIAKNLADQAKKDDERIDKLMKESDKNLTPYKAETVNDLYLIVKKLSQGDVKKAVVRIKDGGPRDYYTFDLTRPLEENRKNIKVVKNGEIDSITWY

Substance	pKd
complement component 1q subcomponent A (C1QA) (from UniProt P02745 23-245) (natural protein)	8.49
complement component 1q subcomponent C (C1QC) (from UniProt P02747 29-245) (natural protein)	8.00
complement component 1q subcomponent B (C1QB) (from UniProt P02746 28-253) (natural protein)	8.68
